According to US20130337438A1 (JAPAN HEALTH SCIENCES FOUNDATION, published 2013):

T1: HPV33 L1/L2-capsid (human papillomavirus type 33, UniProt P06418 1-467; P06416 1-499)
T1 construct: Capsid of co-expressed L1 and L2 from 293FT cells; The pseudovirus is the same capsid with a reporter plasmid; also called L1/L2-capsid of type 33; HPV33 pseudovirus
T1 sequence 1: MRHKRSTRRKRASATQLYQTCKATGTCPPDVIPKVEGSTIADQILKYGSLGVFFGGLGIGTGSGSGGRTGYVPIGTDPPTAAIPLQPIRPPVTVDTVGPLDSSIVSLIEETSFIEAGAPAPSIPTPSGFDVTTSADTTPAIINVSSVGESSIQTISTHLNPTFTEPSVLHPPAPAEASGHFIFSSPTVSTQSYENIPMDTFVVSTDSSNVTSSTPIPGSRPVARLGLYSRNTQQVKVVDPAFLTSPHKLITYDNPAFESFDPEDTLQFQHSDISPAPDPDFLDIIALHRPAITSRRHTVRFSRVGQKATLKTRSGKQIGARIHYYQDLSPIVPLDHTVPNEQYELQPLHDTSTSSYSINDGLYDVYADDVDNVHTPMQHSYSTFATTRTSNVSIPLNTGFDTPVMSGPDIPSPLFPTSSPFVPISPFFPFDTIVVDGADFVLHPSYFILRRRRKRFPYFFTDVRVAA
T1 sequence 2: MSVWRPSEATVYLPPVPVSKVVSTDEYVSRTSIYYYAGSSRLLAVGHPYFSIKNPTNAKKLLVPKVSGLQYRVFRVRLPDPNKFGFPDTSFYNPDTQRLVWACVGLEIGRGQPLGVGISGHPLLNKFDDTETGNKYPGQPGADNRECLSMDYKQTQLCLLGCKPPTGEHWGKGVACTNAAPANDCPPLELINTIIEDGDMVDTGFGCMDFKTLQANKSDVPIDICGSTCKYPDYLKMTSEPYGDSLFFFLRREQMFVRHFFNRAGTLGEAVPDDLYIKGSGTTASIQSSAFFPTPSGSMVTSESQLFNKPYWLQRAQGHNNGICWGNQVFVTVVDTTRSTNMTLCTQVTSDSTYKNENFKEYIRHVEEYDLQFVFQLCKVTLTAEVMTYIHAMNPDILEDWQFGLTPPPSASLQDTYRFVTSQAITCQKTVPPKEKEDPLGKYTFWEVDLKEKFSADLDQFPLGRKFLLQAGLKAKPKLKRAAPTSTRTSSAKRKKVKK

T2: HPV51 L1/L2-capsid (human papillomavirus type 51, UniProt P26539 1-468; P26536 1-504)
T2 construct: Capsid of co-expressed L1 and L2 from 293FT cells; The pseudovirus is the same capsid with a reporter plasmid; also called L1/L2-capsid of type 51; HPV51 pseudovirus
T2 sequence 1: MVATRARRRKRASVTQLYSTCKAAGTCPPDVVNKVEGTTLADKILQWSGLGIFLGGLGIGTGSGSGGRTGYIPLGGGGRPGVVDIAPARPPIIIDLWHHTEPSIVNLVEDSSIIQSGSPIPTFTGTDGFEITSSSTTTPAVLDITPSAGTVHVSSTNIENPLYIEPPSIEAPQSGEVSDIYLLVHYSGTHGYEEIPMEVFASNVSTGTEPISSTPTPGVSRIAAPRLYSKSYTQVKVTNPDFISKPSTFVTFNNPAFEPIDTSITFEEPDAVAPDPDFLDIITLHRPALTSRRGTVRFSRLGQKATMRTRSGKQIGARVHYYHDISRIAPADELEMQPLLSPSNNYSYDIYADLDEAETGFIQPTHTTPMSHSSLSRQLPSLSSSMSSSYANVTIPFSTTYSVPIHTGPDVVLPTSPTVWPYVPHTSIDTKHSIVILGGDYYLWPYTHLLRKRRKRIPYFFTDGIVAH
T2 sequence 2: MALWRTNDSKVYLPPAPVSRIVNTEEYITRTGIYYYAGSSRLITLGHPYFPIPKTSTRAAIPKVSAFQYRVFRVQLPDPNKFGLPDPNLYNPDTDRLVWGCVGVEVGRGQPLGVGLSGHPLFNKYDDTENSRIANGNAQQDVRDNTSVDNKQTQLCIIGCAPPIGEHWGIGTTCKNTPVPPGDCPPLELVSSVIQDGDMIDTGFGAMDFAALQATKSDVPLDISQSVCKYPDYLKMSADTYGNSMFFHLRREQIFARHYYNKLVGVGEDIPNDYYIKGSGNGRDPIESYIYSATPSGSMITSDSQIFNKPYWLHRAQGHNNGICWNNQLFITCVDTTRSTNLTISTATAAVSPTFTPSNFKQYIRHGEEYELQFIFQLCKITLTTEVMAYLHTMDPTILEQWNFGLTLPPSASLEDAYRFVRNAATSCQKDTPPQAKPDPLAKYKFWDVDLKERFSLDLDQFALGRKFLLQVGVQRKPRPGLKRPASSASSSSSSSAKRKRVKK

B1: monoclonal antibody 24B (antibody, V domains shown)
VH: EVQLQQSGTVLARPGASVKMSCKASVYSFPSNWMHWVKQRPGQGLEWIGAIYPGTGATRYNQKFKDKAKLTAVTSADTAYMELSSLTDEDSAVYYCTGYSLYWGQGTILTVSS
VL: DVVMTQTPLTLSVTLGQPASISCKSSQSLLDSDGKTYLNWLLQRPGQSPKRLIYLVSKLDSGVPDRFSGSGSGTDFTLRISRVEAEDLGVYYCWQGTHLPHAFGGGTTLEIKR
notes: Used as mouse ascites or as antibody purified from ascites; also called Mouse-Mouse hybridoma 24B (FERM BP-11305)
B2: monoclonal antibody 13B (antibody, V domains shown)
VH: DVQLQESGPGLVKPSQSLSLSCTVTGYSITSDSAWNWIRQFPGNKLEWMGYITFSGSTNYNPSLKSRLSITRDTSKNQFFLQLNSVTTEDTATYYCTGPFLDYWGQGTTLTVSS
VL: DVVMTQTPLSLPVSLGDQATISCRSSLSLVLSNRITYLQWYLQKPGQSPKLLIYKVSNRFSGVPDRFSGSGSGTDFTLKISRVEAEDLGVYFCSQSSHFPWTFGGGTKLEIKR
notes: Used as mouse ascites or as antibody purified from ascites; also called Mouse-Mouse hybridoma 13B (FERM BP-11304)

Columns and labels:
HPV33 L1/L2-capsid [1] = target: T1, HPV33 L1/L2-capsid; assay: ELISA on immobilized L1/L2-capsid, ascites 1:100
HPV33 L1/L2-capsid [2] = target: T1, HPV33 L1/L2-capsid; assay: ELISA on immobilized L1/L2-capsid, purified antibody 250 ng/well
HPV51 L1/L2-capsid = target: T2, HPV51 L1/L2-capsid; assay: as above

Binder	binding result (HPV33 L1/L2-capsid [1])	binding result (HPV33 L1/L2-capsid [2])	binding result (HPV51 L1/L2-capsid)
B1	binds		
B2		binds	binds
